# Source: publication PMC12809855, “Biochemical and Mechanistic Insights into O2 Scavenging and Stability of the Soluble Hydrogenase from Hydrogenophaga pseudoflava” (ACS Omega, 2025)
# B1: HpSH (soluble hydrogenase from Hydrogenophaga pseudoflava, HoxFUYH) (Hydrogenophaga pseudoflava) (protein)
# chain: MTAFDQPSALHAADAVLARWQHDPHALVQVLRETQAQTHWLPRELLAHIAAALRLTTAHVEGVASFYRFFHLRPVGRVHVLFSDNITDRMAGSDALMARLCARLGVAPGQVDAQGRFCVDRCSCTGLCDQGPALLVNHHQVVTRLDAGRVDQLAERLLAGVPPEDWPADWFAVEDHVRRADVLLQGLPADAPSLPAVLSRTPAELLAEVERSGLRGRGGAGFPTARKWRACAEADAPDGQRCVVCNADEGEPGTFKDRVLLGRHADELFDGMTLAARAIGAQTGLVYLRGEYRFLLPQLEAVLQRRRANGLLGRNAGGVAGFDFDIAIHLGAGAYVCGEESALIESLEGQRGTPRIRPPFPVQRGYLGRPTVVNNVETLVAVAHIARRGGAWWAGLGTPESTGTKIHSVSGDCERPGLYEYPLGTPLAQILADCGARNAQAVQVGGPSGSCVPASGFHRAIAFEDLPSAGALMVFDQTRDLFEVARHFARFFAHESCGLCTPCRVGTELVVRRLDKLAHERGAGRGSAFDIARLQELDALLHSGTHCGLGVSACNPLRDTLAHFGQAYAQRSTAAQFQPGIDLDAELSSARRATGRQDRGAHLNTEHGA
# notes: full-length HoxFUYH heterotetramer, N-terminal Strep-tag on HoxF, coexpressed with endopeptidase HoxW (HoxH C-terminally processed), homologous expression in H. pseudoflava from pOCEx1; no HoxI; preparation has excess HoxF; with NAD-reducing hydrogenase HoxS subunit gamma; NAD-reducing hydrogenase HoxS subunit delta; NAD-reducing hydrogenase HoxS subunit beta
# Substrate: NC(=O)c1ccc[n+]([C@@H]2O[C@H](COP(=O)(O)OP(=O)(O)OC[C@H]3O[C@@H](n4cnc5c(N)ncnc54)[C@H](O)[C@@H]3O)[C@@H](O)[C@H]2O)c1
# Experiment: purified protein
# Format: biochemical, Hydrogenophaga pseudoflava
# Conditions: H2-saturated buffer, 50 mM Tris-HCl, no additional salt, pH 7, 30 °C, 1 mM TCEP, 1 μM FMN, kcat apparent
protein,measurement,value
B1,Km,400 ± 140 µM
same,kcat,137 ± 20 s⁻¹
